Values belong to the binder of their own block, whether it stands above or below them. Numbered stars: 1 amine (or outer) side, 2 acyl side, 3 side chain; on linkers, the order of the positions; unused ones are H or OH. Bridge positions count the residues as written; N and C are the ends. Side chains are listed from the residue outwards. Ends that are not written are not given here. * marks the point of attachment. C20 diacid = O=C(O)CCCCCCCCCCCCCCCCCCC(=O)*; γGlu = O=C(O)[C@H](CCC(=O)[*:2])N[*:1]; AEEA = NCCOCCOCC(=O)O
Experiments:
rat calcitonin receptor [1] = molecular target: T1, rat calcitonin receptor (rat, UniProt P32214 25-516); assay: SPA competition with 125I-calcitonin, membranes with rat calcitonin receptor (Assay VIII)
T1 construct: whole, on cells; Used as membranes prepared from the transfected cells; also called rCTR; rCT
T1 sequence (looked up): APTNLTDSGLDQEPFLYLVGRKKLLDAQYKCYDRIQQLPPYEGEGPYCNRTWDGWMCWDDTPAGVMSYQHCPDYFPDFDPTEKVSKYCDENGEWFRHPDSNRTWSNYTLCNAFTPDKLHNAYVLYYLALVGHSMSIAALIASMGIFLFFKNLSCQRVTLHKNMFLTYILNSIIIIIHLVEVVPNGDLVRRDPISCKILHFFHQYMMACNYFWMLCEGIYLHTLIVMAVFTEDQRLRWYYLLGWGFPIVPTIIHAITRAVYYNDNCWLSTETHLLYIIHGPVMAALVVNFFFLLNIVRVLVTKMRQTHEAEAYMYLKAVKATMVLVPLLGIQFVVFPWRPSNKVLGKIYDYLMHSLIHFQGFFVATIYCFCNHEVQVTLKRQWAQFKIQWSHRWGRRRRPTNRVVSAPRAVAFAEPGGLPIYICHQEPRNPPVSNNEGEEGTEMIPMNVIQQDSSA

rat calcitonin receptor [2] = molecular target: T1, rat calcitonin receptor; assay: ratio of binding IC50 at rat calcitonin receptor to IC50 at rat amylin receptor (reference)
[3] = molecular target: T2, human calcitonin receptor (human, UniProt P30988 25-474); assay: ratio of binding IC50 at human calcitonin receptor to IC50 at human amylin receptor (reference)
T2 construct: whole, on cells; Used as membranes prepared from the transfected cells; also called hCTR; hCT
T2 sequence (looked up): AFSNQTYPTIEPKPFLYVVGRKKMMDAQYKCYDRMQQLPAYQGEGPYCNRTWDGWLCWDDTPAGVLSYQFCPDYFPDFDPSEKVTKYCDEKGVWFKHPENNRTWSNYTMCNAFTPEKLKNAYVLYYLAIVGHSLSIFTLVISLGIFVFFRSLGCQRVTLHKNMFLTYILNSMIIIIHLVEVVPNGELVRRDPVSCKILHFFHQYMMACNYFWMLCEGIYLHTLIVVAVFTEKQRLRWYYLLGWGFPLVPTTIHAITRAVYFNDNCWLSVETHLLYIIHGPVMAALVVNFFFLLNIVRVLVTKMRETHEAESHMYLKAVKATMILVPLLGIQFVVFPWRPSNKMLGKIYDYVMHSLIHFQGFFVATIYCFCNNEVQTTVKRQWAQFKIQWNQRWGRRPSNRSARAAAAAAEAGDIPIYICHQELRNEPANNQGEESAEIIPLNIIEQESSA
Procedure, shortened: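 Membranes (35 ng/μL final) + SPA beads, 50 mM Hepes pH 7.4 buffer with 1 mM CaCl2, 5 mM MgCl₂, 0.1% OA, 0.02% Tween20; 120 min, 25° C, shaking; centrifuged, counted; IC₅₀ by one-site binding competition.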

IC50 (rat calcitonin receptor [1]): 60.4 nM | Ratio rCT/rAmylin binding (rat calcitonin receptor [2]): 36.2 | Ratio hCT/hAmylin binding [3]: 68.1
B1: N^ε1-[2-[2-[2-[[(4S)-4-carboxy-4-(19-carboxynonadecanoylamino)butanoyl]amino]ethoxy]ethoxy]acetyl]-[His14,Arg17,Pro21,Pro27,His34]-h-amylin (peptide)
peptide: K([AEEA-γGlu-C20 diacid])CNTATCATQRLAHFLRHSSPNFGAIPSSTNVGHNTY-NH2
modifications: disulfide 2-7; N-terminus assumed
SMILES: CC[C@H](C)[C@H](NC(=O)[C@H](C)NC(=O)CNC(=O)[C@H](Cc1ccccc1)NC(=O)[C@H](CC(N)=O)NC(=O)[C@@H]1CCCN1C(=O)[C@H](CO)NC(=O)[C@H](CO)NC(=O)[C@H](Cc1c[nH]cn1)NC(=O)[C@H](CCCNC(=N)N)NC(=O)[C@H](CC(C)C)NC(=O)[C@H](Cc1ccccc1)NC(=O)[C@H](Cc1c[nH]cn1)NC(=O)[C@H](C)NC(=O)[C@H](CC(C)C)NC(=O)[C@H](CCCNC(=N)N)NC(=O)[C@H](CCC(N)=O)NC(=O)[C@@H](NC(=O)[C@H](C)NC(=O)[C@@H]1CSSC[C@H](NC(=O)[C@@H](N)CCCCNC(=O)COCCOCCNC(=O)CC[C@H](NC(=O)CCCCCCCCCCCCCCCCCCC(=O)O)C(=O)O)C(=O)N[C@@H](CC(N)=O)C(=O)N[C@@H]([C@@H](C)O)C(=O)N[C@@H](C)C(=O)N[C@@H]([C@@H](C)O)C(=O)N1)[C@@H](C)O)C(=O)N1CCC[C@H]1C(=O)N[C@@H](CO)C(=O)N[C@@H](CO)C(=O)N[C@H](C(=O)N[C@@H](CC(N)=O)C(=O)N[C@H](C(=O)NCC(=O)N[C@@H](Cc1c[nH]cn1)C(=O)N[C@@H](CC(N)=O)C(=O)N[C@H](C(=O)N[C@@H](Cc1ccc(O)cc1)C(N)=O)[C@@H](C)O)C(C)C)[C@@H](C)O
notes: Analogue of human amylin; disulfide and C-terminal amide as told for h-amylin; also called compound 80

IC50 (rat calcitonin receptor [1]): 28.5 nM | Ratio rCT/rAmylin binding (rat calcitonin receptor [2]): 122 | Ratio hCT/hAmylin binding [3]: 64.4
B2: N^ε1-[2-[2-[2-[[(4S)-4-carboxy-4-(19-carboxynonadecanoylamino)butanoyl]amino]ethoxy]ethoxy]acetyl]-[His14,Arg17,Pro21,Pro27,Pro34]-h-amylin (peptide)
peptide: K([AEEA-γGlu-C20 diacid])CNTATCATQRLAHFLRHSSPNFGAIPSSTNVGPNTY-NH2
modifications: disulfide 2-7; N-terminus assumed
SMILES: CC[C@H](C)[C@H](NC(=O)[C@H](C)NC(=O)CNC(=O)[C@H](Cc1ccccc1)NC(=O)[C@H](CC(N)=O)NC(=O)[C@@H]1CCCN1C(=O)[C@H](CO)NC(=O)[C@H](CO)NC(=O)[C@H](Cc1c[nH]cn1)NC(=O)[C@H](CCCNC(=N)N)NC(=O)[C@H](CC(C)C)NC(=O)[C@H](Cc1ccccc1)NC(=O)[C@H](Cc1c[nH]cn1)NC(=O)[C@H](C)NC(=O)[C@H](CC(C)C)NC(=O)[C@H](CCCNC(=N)N)NC(=O)[C@H](CCC(N)=O)NC(=O)[C@@H](NC(=O)[C@H](C)NC(=O)[C@@H]1CSSC[C@H](NC(=O)[C@@H](N)CCCCNC(=O)COCCOCCNC(=O)CC[C@H](NC(=O)CCCCCCCCCCCCCCCCCCC(=O)O)C(=O)O)C(=O)N[C@@H](CC(N)=O)C(=O)N[C@@H]([C@@H](C)O)C(=O)N[C@@H](C)C(=O)N[C@@H]([C@@H](C)O)C(=O)N1)[C@@H](C)O)C(=O)N1CCC[C@H]1C(=O)N[C@@H](CO)C(=O)N[C@@H](CO)C(=O)N[C@H](C(=O)N[C@@H](CC(N)=O)C(=O)N[C@H](C(=O)NCC(=O)N1CCC[C@H]1C(=O)N[C@@H](CC(N)=O)C(=O)N[C@H](C(=O)N[C@@H](Cc1ccc(O)cc1)C(N)=O)[C@@H](C)O)C(C)C)[C@@H](C)O
notes: Analogue of human amylin; disulfide and C-terminal amide as told for h-amylin; also called compound 68

IC50 (rat calcitonin receptor [1]): 50.3 nM | Ratio rCT/rAmylin binding (rat calcitonin receptor [2]): 178 | Ratio hCT/hAmylin binding [3]: 51.7
B3: N^ε1-[2-[2-[2-[[(4S)-4-carboxy-4-(19-carboxynonadecanoylamino)butanoyl]amino]ethoxy]ethoxy]acetyl]-[Ser14,Arg17,Pro21,Pro27,Pro31]-h-amylin (peptide)
peptide: K([AEEA-γGlu-C20 diacid])CNTATCATQRLASFLRHSSPNFGAIPSSTPVGSNTY-NH2
modifications: disulfide 2-7; N-terminus assumed
SMILES: CC[C@H](C)[C@H](NC(=O)[C@H](C)NC(=O)CNC(=O)[C@H](Cc1ccccc1)NC(=O)[C@H](CC(N)=O)NC(=O)[C@@H]1CCCN1C(=O)[C@H](CO)NC(=O)[C@H](CO)NC(=O)[C@H](Cc1c[nH]cn1)NC(=O)[C@H](CCCNC(=N)N)NC(=O)[C@H](CC(C)C)NC(=O)[C@H](Cc1ccccc1)NC(=O)[C@H](CO)NC(=O)[C@H](C)NC(=O)[C@H](CC(C)C)NC(=O)[C@H](CCCNC(=N)N)NC(=O)[C@H](CCC(N)=O)NC(=O)[C@@H](NC(=O)[C@H](C)NC(=O)[C@@H]1CSSC[C@H](NC(=O)[C@@H](N)CCCCNC(=O)COCCOCCNC(=O)CC[C@H](NC(=O)CCCCCCCCCCCCCCCCCCC(=O)O)C(=O)O)C(=O)N[C@@H](CC(N)=O)C(=O)N[C@@H]([C@@H](C)O)C(=O)N[C@@H](C)C(=O)N[C@@H]([C@@H](C)O)C(=O)N1)[C@@H](C)O)C(=O)N1CCC[C@H]1C(=O)N[C@@H](CO)C(=O)N[C@@H](CO)C(=O)N[C@H](C(=O)N1CCC[C@H]1C(=O)N[C@H](C(=O)NCC(=O)N[C@@H](CO)C(=O)N[C@@H](CC(N)=O)C(=O)N[C@H](C(=O)N[C@@H](Cc1ccc(O)cc1)C(N)=O)[C@@H](C)O)C(C)C)[C@@H](C)O
notes: Analogue of human amylin; disulfide and C-terminal amide as told for h-amylin; also called compound 73

IC50 (rat calcitonin receptor [1]): 109 nM | Ratio rCT/rAmylin binding (rat calcitonin receptor [2]): 22.3 | Ratio hCT/hAmylin binding [3]: 101
B4: N^ε1-[2-[2-[2-[[(4S)-4-carboxy-4-(19-carboxynonadecanoylamino)butanoyl]amino]ethoxy]ethoxy]acetyl]-[Lys14,Arg17,Pro21,Pro27,Pro31]-h-amylin (peptide)
peptide: K([AEEA-γGlu-C20 diacid])CNTATCATQRLAKFLRHSSPNFGAIPSSTPVGSNTY-NH2
modifications: disulfide 2-7; N-terminus assumed
SMILES: CC[C@H](C)[C@H](NC(=O)[C@H](C)NC(=O)CNC(=O)[C@H](Cc1ccccc1)NC(=O)[C@H](CC(N)=O)NC(=O)[C@@H]1CCCN1C(=O)[C@H](CO)NC(=O)[C@H](CO)NC(=O)[C@H](Cc1c[nH]cn1)NC(=O)[C@H](CCCNC(=N)N)NC(=O)[C@H](CC(C)C)NC(=O)[C@H](Cc1ccccc1)NC(=O)[C@H](CCCCN)NC(=O)[C@H](C)NC(=O)[C@H](CC(C)C)NC(=O)[C@H](CCCNC(=N)N)NC(=O)[C@H](CCC(N)=O)NC(=O)[C@@H](NC(=O)[C@H](C)NC(=O)[C@@H]1CSSC[C@H](NC(=O)[C@@H](N)CCCCNC(=O)COCCOCCNC(=O)CC[C@H](NC(=O)CCCCCCCCCCCCCCCCCCC(=O)O)C(=O)O)C(=O)N[C@@H](CC(N)=O)C(=O)N[C@@H]([C@@H](C)O)C(=O)N[C@@H](C)C(=O)N[C@@H]([C@@H](C)O)C(=O)N1)[C@@H](C)O)C(=O)N1CCC[C@H]1C(=O)N[C@@H](CO)C(=O)N[C@@H](CO)C(=O)N[C@H](C(=O)N1CCC[C@H]1C(=O)N[C@H](C(=O)NCC(=O)N[C@@H](CO)C(=O)N[C@@H](CC(N)=O)C(=O)N[C@H](C(=O)N[C@@H](Cc1ccc(O)cc1)C(N)=O)[C@@H](C)O)C(C)C)[C@@H](C)O
notes: Analogue of human amylin; disulfide and C-terminal amide as told for h-amylin; Acylation site is 1K, not Lys14; also called compound 74

IC50 (rat calcitonin receptor [1]): 442 nM | Ratio rCT/rAmylin binding (rat calcitonin receptor [2]): 110 | Ratio hCT/hAmylin binding [3]: 91.4
B5: N^ε1-[2-[2-[2-[[(4S)-4-carboxy-4-(19-carboxynonadecanoylamino)butanoyl]amino]ethoxy]ethoxy]acetyl]-[Thr14,Arg17,Pro21,Pro27,Pro31]-h-amylin (peptide)
peptide: K([AEEA-γGlu-C20 diacid])CNTATCATQRLATFLRHSSPNFGAIPSSTPVGSNTY-NH2
modifications: disulfide 2-7; N-terminus assumed
SMILES: CC[C@H](C)[C@H](NC(=O)[C@H](C)NC(=O)CNC(=O)[C@H](Cc1ccccc1)NC(=O)[C@H](CC(N)=O)NC(=O)[C@@H]1CCCN1C(=O)[C@H](CO)NC(=O)[C@H](CO)NC(=O)[C@H](Cc1c[nH]cn1)NC(=O)[C@H](CCCNC(=N)N)NC(=O)[C@H](CC(C)C)NC(=O)[C@H](Cc1ccccc1)NC(=O)[C@@H](NC(=O)[C@H](C)NC(=O)[C@H](CC(C)C)NC(=O)[C@H](CCCNC(=N)N)NC(=O)[C@H](CCC(N)=O)NC(=O)[C@@H](NC(=O)[C@H](C)NC(=O)[C@@H]1CSSC[C@H](NC(=O)[C@@H](N)CCCCNC(=O)COCCOCCNC(=O)CC[C@H](NC(=O)CCCCCCCCCCCCCCCCCCC(=O)O)C(=O)O)C(=O)N[C@@H](CC(N)=O)C(=O)N[C@@H]([C@@H](C)O)C(=O)N[C@@H](C)C(=O)N[C@@H]([C@@H](C)O)C(=O)N1)[C@@H](C)O)[C@@H](C)O)C(=O)N1CCC[C@H]1C(=O)N[C@@H](CO)C(=O)N[C@@H](CO)C(=O)N[C@H](C(=O)N1CCC[C@H]1C(=O)N[C@H](C(=O)NCC(=O)N[C@@H](CO)C(=O)N[C@@H](CC(N)=O)C(=O)N[C@H](C(=O)N[C@@H](Cc1ccc(O)cc1)C(N)=O)[C@@H](C)O)C(C)C)[C@@H](C)O
notes: Analogue of human amylin; disulfide and C-terminal amide as told for h-amylin; also called compound 75
